B1: 26S proteasome non-ATPase regulatory subunit 4 (Homo sapiens), P55036 (parent)
chain: MVLESTMVCVDNSEYMRNGDFLPTRLQAQQDAVNIVCHSKTRSNPENNVGLITLANDCEVLTTLTPDTGRILSKLHTVQPKGKITFCTGIRVAHLALKHRQGKNHKMRIIAFVGSPVEDNEKDLVKLAKRLKKEKVNVDIINFGEEEVNTEKLTAFVNTLNGKDGTGSHLVTVPPGPSLADALISSPILAGEGGAMLGLGASDFEFGVDPSADPELALALRVSMEEQRQRQEEEARRAAAASAAEAGIATTGTEDSDDALLKMTISQQEFGRTGLPDLSSMTEEEQIAYAMQMSLQGAEFGQAESADIDASSAMDTSEPAKEEDDYDVMQDPEFLQSVLENLPGVDPNNEAIRNAMGSLASQATKDGKKDKKEEDKK

Variants of: B1
Settings: with ubql1_human UBQLN1, Q9UMX0
Chain of ubql1_human UBQLN1, Q9UMX0 (Q9UMX0 whole entry): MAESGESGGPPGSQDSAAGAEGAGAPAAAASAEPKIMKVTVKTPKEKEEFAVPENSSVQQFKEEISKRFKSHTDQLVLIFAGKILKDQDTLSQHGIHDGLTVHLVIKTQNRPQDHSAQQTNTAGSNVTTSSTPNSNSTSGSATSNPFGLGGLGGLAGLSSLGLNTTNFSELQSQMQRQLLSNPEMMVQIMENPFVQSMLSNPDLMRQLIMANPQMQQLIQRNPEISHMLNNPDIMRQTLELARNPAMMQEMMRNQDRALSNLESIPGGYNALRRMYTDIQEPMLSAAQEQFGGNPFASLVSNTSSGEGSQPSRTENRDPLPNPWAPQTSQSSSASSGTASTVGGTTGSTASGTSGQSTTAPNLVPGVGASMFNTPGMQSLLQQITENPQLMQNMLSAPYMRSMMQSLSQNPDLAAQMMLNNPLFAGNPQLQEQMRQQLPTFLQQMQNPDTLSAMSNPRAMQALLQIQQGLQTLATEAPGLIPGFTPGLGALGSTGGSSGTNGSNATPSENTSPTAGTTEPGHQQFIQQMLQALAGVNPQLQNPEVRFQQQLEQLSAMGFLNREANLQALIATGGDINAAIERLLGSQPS

effect of a mutation on the interaction | Variant
disrupting interaction strength | MVLESTMVCVDNSEYMRNGDFLPTRLQAQQDAVNIVCHSKTRSNPENNVGLITLANDCEVLTTLTPDTGRILSKLHTVQPKGKITFCTGIRVAHLALKHRQGKNHKMRIIAFVGSPVEDNEKDLVKLAKRLKKEKVNVDIINFGEEEVNTEKLTAFVNTLNGKDGTGSHLVTVPPGPSLADALISSPILAGEGGAMLGLGASDFEFGVDPSADPENNNNNRVSMEEQRQRQEEEARRAAAASAAEAGIATTGTEDSDDALLKMTISQQEFGRTGLPDLSSMTEEEQNNNNNQMSLQGAEFGQAESADIDASSAMDTSEPAKEEDDYDVMQDPEFLQSVLENLPGVDPNNEAIRNAMGSLASQATKDGKKDKKEEDKK [L216N;A217N;L218N;A219N;L220N;I287N;A288N;Y289N;A290N;M291N]
disrupting interaction strength | MVLESTMVCVDNSEYMRNGDFLPTRLQAQQDAVNIVCHSKTRSNPENNVGLITLANDCEVLTTLTPDTGRILSKLHTVQPKGKITFCTGIRVAHLALKHRQGKNHKMRIIAFVGSPVEDNEKDLVKLAKRLKKEKVNVDIINFGEEEVNTEKLTAFVNTLNGKDGTGSHLVTVPPGPSLADALISSPILAGEGGAMLGLGASDFEFGVDPSADPELALALRVSMEEQRQRQEEEARRAAAASAAEAGIATTGTEDSDDALLKMTISQQEFGRTGLPDLSSMTEEEQNNNNNQMSLQGAEFGQAESADIDASSAMDTSEPAKEEDDYDVMQDPEFLQSVLENLPGVDPNNEAIRNAMGSLASQATKDGKKDKKEEDKK [I287N;A288N;Y289N;A290N;M291N]
decreasing interaction strength | MVLESTMVCVDNSEYMRNGDFLPTRLQAQQDAVNIVCHSKTRSNPENNVGLITLANDCEVLTTLTPDTGRILSKLHTVQPKGKITFCTGIRVAHLALKHRQGKNHKMRIIAFVGSPVEDNEKDLVKLAKRLKKEKVNVDIINFGEEEVNTEKLTAFVNTLNGKDGTGSHLVTVPPGPSLADALISSPILAGEGGAMLGLGASDFEFGVDPSADPENNNNNRVSMEEQRQRQEEEARRAAAASAAEAGIATTGTEDSDDALLKMTISQQEFGRTGLPDLSSMTEEEQIAYAMQMSLQGAEFGQAESADIDASSAMDTSEPAKEEDDYDVMQDPEFLQSVLENLPGVDPNNEAIRNAMGSLASQATKDGKKDKKEEDKK [L216N;A217N;L218N;A219N;L220N]

Variants of: B1
Settings: with ubql2_human UBQLN2, Q9UHD9
Chain of ubql2_human UBQLN2, Q9UHD9 (Q9UHD9 whole entry): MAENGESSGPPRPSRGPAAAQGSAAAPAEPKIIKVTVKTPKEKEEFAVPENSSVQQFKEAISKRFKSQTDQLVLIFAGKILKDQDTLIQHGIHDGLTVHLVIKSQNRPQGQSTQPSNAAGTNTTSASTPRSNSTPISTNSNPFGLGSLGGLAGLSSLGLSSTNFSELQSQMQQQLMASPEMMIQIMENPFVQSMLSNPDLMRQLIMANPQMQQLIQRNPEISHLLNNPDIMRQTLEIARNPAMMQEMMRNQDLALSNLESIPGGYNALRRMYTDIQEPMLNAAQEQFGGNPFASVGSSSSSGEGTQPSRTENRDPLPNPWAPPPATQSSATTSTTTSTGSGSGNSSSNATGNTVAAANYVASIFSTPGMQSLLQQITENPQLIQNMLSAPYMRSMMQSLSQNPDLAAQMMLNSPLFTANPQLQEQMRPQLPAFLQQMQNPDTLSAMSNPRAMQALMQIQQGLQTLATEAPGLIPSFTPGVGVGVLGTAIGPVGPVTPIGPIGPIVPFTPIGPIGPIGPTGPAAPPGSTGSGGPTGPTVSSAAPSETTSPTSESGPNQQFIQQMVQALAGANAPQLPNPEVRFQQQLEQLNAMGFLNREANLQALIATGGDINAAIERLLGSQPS

effect of a mutation on the interaction | Variant
disrupting interaction strength | MVLESTMVCVDNSEYMRNGDFLPTRLQAQQDAVNIVCHSKTRSNPENNVGLITLANDCEVLTTLTPDTGRILSKLHTVQPKGKITFCTGIRVAHLALKHRQGKNHKMRIIAFVGSPVEDNEKDLVKLAKRLKKEKVNVDIINFGEEEVNTEKLTAFVNTLNGKDGTGSHLVTVPPGPSLADALISSPILAGEGGAMLGLGASDFEFGVDPSADPENNNNNRVSMEEQRQRQEEEARRAAAASAAEAGIATTGTEDSDDALLKMTISQQEFGRTGLPDLSSMTEEEQNNNNNQMSLQGAEFGQAESADIDASSAMDTSEPAKEEDDYDVMQDPEFLQSVLENLPGVDPNNEAIRNAMGSLASQATKDGKKDKKEEDKK [L216N;A217N;L218N;A219N;L220N;I287N;A288N;Y289N;A290N;M291N]
disrupting interaction strength | MVLESTMVCVDNSEYMRNGDFLPTRLQAQQDAVNIVCHSKTRSNPENNVGLITLANDCEVLTTLTPDTGRILSKLHTVQPKGKITFCTGIRVAHLALKHRQGKNHKMRIIAFVGSPVEDNEKDLVKLAKRLKKEKVNVDIINFGEEEVNTEKLTAFVNTLNGKDGTGSHLVTVPPGPSLADALISSPILAGEGGAMLGLGASDFEFGVDPSADPELALALRVSMEEQRQRQEEEARRAAAASAAEAGIATTGTEDSDDALLKMTISQQEFGRTGLPDLSSMTEEEQNNNNNQMSLQGAEFGQAESADIDASSAMDTSEPAKEEDDYDVMQDPEFLQSVLENLPGVDPNNEAIRNAMGSLASQATKDGKKDKKEEDKK [I287N;A288N;Y289N;A290N;M291N]
with no effect | MVLESTMVCVDNSEYMRNGDFLPTRLQAQQDAVNIVCHSKTRSNPENNVGLITLANDCEVLTTLTPDTGRILSKLHTVQPKGKITFCTGIRVAHLALKHRQGKNHKMRIIAFVGSPVEDNEKDLVKLAKRLKKEKVNVDIINFGEEEVNTEKLTAFVNTLNGKDGTGSHLVTVPPGPSLADALISSPILAGEGGAMLGLGASDFEFGVDPSADPENNNNNRVSMEEQRQRQEEEARRAAAASAAEAGIATTGTEDSDDALLKMTISQQEFGRTGLPDLSSMTEEEQIAYAMQMSLQGAEFGQAESADIDASSAMDTSEPAKEEDDYDVMQDPEFLQSVLENLPGVDPNNEAIRNAMGSLASQATKDGKKDKKEEDKK [L216N;A217N;L218N;A219N;L220N]

Variants of: B1
Settings: with dsk2_yeast DSK2, P48510
Chain of dsk2_yeast DSK2, P48510 (P48510 whole entry): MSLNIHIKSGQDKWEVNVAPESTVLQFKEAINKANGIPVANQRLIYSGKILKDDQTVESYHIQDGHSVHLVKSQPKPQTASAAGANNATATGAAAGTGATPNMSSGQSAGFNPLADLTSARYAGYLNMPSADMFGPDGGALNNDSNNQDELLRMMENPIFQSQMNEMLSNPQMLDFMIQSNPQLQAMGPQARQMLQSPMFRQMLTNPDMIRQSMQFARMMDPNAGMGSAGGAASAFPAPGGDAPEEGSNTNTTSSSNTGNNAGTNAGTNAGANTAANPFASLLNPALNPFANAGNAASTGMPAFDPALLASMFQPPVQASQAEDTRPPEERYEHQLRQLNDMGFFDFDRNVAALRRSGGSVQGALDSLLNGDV

effect of a mutation on the interaction | Variant
disrupting interaction strength | MVLESTMVCVDNSEYMRNGDFLPTRLQAQQDAVNIVCHSKTRSNPENNVGLITLANDCEVLTTLTPDTGRILSKLHTVQPKGKITFCTGIRVAHLALKHRQGKNHKMRIIAFVGSPVEDNEKDLVKLAKRLKKEKVNVDIINFGEEEVNTEKLTAFVNTLNGKDGTGSHLVTVPPGPSLADALISSPILAGEGGAMLGLGASDFEFGVDPSADPENNNNNRVSMEEQRQRQEEEARRAAAASAAEAGIATTGTEDSDDALLKMTISQQEFGRTGLPDLSSMTEEEQNNNNNQMSLQGAEFGQAESADIDASSAMDTSEPAKEEDDYDVMQDPEFLQSVLENLPGVDPNNEAIRNAMGSLASQATKDGKKDKKEEDKK [L216N;A217N;L218N;A219N;L220N;I287N;A288N;Y289N;A290N;M291N]
with no effect | MVLESTMVCVDNSEYMRNGDFLPTRLQAQQDAVNIVCHSKTRSNPENNVGLITLANDCEVLTTLTPDTGRILSKLHTVQPKGKITFCTGIRVAHLALKHRQGKNHKMRIIAFVGSPVEDNEKDLVKLAKRLKKEKVNVDIINFGEEEVNTEKLTAFVNTLNGKDGTGSHLVTVPPGPSLADALISSPILAGEGGAMLGLGASDFEFGVDPSADPELALALRVSMEEQRQRQEEEARRAAAASAAEAGIATTGTEDSDDALLKMTISQQEFGRTGLPDLSSMTEEEQNNNNNQMSLQGAEFGQAESADIDASSAMDTSEPAKEEDDYDVMQDPEFLQSVLENLPGVDPNNEAIRNAMGSLASQATKDGKKDKKEEDKK [I287N;A288N;Y289N;A290N;M291N]
disrupting interaction strength | MVLESTMVCVDNSEYMRNGDFLPTRLQAQQDAVNIVCHSKTRSNPENNVGLITLANDCEVLTTLTPDTGRILSKLHTVQPKGKITFCTGIRVAHLALKHRQGKNHKMRIIAFVGSPVEDNEKDLVKLAKRLKKEKVNVDIINFGEEEVNTEKLTAFVNTLNGKDGTGSHLVTVPPGPSLADALISSPILAGEGGAMLGLGASDFEFGVDPSADPENNNNNRVSMEEQRQRQEEEARRAAAASAAEAGIATTGTEDSDDALLKMTISQQEFGRTGLPDLSSMTEEEQIAYAMQMSLQGAEFGQAESADIDASSAMDTSEPAKEEDDYDVMQDPEFLQSVLENLPGVDPNNEAIRNAMGSLASQATKDGKKDKKEEDKK [L216N;A217N;L218N;A219N;L220N]

Variants of: B1
Settings: with rd23b_human RAD23B

effect of a mutation on the interaction | Variant
disrupting interaction strength | MVLESTMVCVDNSEYMRNGDFLPTRLQAQQDAVNIVCHSKTRSNPENNVGLITLANDCEVLTTLTPDTGRILSKLHTVQPKGKITFCTGIRVAHLALKHRQGKNHKMRIIAFVGSPVEDNEKDLVKLAKRLKKEKVNVDIINFGEEEVNTEKLTAFVNTLNGKDGTGSHLVTVPPGPSLADALISSPILAGEGGAMLGLGASDFEFGVDPSADPENNNNNRVSMEEQRQRQEEEARRAAAASAAEAGIATTGTEDSDDALLKMTISQQEFGRTGLPDLSSMTEEEQNNNNNQMSLQGAEFGQAESADIDASSAMDTSEPAKEEDDYDVMQDPEFLQSVLENLPGVDPNNEAIRNAMGSLASQATKDGKKDKKEEDKK [L216N;A217N;L218N;A219N;L220N;I287N;A288N;Y289N;A290N;M291N]
disrupting interaction strength | MVLESTMVCVDNSEYMRNGDFLPTRLQAQQDAVNIVCHSKTRSNPENNVGLITLANDCEVLTTLTPDTGRILSKLHTVQPKGKITFCTGIRVAHLALKHRQGKNHKMRIIAFVGSPVEDNEKDLVKLAKRLKKEKVNVDIINFGEEEVNTEKLTAFVNTLNGKDGTGSHLVTVPPGPSLADALISSPILAGEGGAMLGLGASDFEFGVDPSADPELALALRVSMEEQRQRQEEEARRAAAASAAEAGIATTGTEDSDDALLKMTISQQEFGRTGLPDLSSMTEEEQNNNNNQMSLQGAEFGQAESADIDASSAMDTSEPAKEEDDYDVMQDPEFLQSVLENLPGVDPNNEAIRNAMGSLASQATKDGKKDKKEEDKK [I287N;A288N;Y289N;A290N;M291N]
decreasing interaction strength | MVLESTMVCVDNSEYMRNGDFLPTRLQAQQDAVNIVCHSKTRSNPENNVGLITLANDCEVLTTLTPDTGRILSKLHTVQPKGKITFCTGIRVAHLALKHRQGKNHKMRIIAFVGSPVEDNEKDLVKLAKRLKKEKVNVDIINFGEEEVNTEKLTAFVNTLNGKDGTGSHLVTVPPGPSLADALISSPILAGEGGAMLGLGASDFEFGVDPSADPENNNNNRVSMEEQRQRQEEEARRAAAASAAEAGIATTGTEDSDDALLKMTISQQEFGRTGLPDLSSMTEEEQIAYAMQMSLQGAEFGQAESADIDASSAMDTSEPAKEEDDYDVMQDPEFLQSVLENLPGVDPNNEAIRNAMGSLASQATKDGKKDKKEEDKK [L216N;A217N;L218N;A219N;L220N]

From IntAct's records for PubMed 20059542
